How the values were obtained:
HeLa Kyoto [1] = assay: solubility in G1/S (NP-40 vs SDS abundance) (log2 ratio); higher = more soluble; conditions: cell cycle stage: G1/S
HeLa Kyoto [2] = assay: melting temperature (median over replicates), in situ; higher = more thermally stable
HeLa Kyoto [3] = assay: solubility change mitosis vs G1/S (difference of NP-40 vs SDS log2 ratios) (log2 ratio difference); higher = more soluble in mitosis
HeLa Kyoto [4] = assay: thermal stability score vs G1/S (z-score of summed log2 fold changes over temperatures); higher = more thermally stable than in G1/S
[5] = cell cycle stage: early G1 (4.5 h after nocodazole release)
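For melting temperature (median over replicates), in situ in this document: HeLa Kyoto cells synchronized by double thymidine or nocodazole block, proteins quantified by TMT10plex mass spectrometry, three independent biological replicates.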
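For solubility change mitosis vs G1/S (difference of NP-40 vs SDS log2 ratios) in this document: synchronized HeLa Kyoto cells (double thymidine block for G1/S, nocodazole release for mitosis), protein amounts in NP-40 versus SDS lysates quantified by mass spectrometry, three biological replicates.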
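For solubility in G1/S (NP-40 vs SDS abundance) in this document: HeLa Kyoto cells arrested at G1/S by double thymidine block, proteins quantified by TMT10plex mass spectrometry in mild NP-40 versus SDS extracts, three biological replicates.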
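For thermal stability score vs G1/S (z-score of summed log2 fold changes over temperatures) in this document: synchronized HeLa Kyoto cells, proteins quantified by TMT10plex mass spectrometry, three biological replicates, mitosis taken 0.5 h after nocodazole release, G1/S directly after double thymidine block.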

Substance | solubility in G1/S (log2) (HeLa Kyoto [1]) | melting temperature (HeLa Kyoto [2]; cell cycle stage: G1/S) | melting temperature (HeLa Kyoto [2]; cell cycle stage: mitosis) | solubility change mitosis (log2) (HeLa Kyoto [3]) | thermal stability score (HeLa Kyoto [4]; [5]) | thermal stability score (HeLa Kyoto [4]; cell cycle stage: mitosis)
MQDGNFLLSALQPEAGVCSLALPSDLQLDRRGAEGPEAERLRAARVQEQVRARLLQLGQQPRHNGAAEPEPEAETARGTSRGQYHTLQAGFSSRSQGLSGDKTSGFRPIAKPAYSPASWSSRSAVDLSCSRRLSSAHNGGSAFGAAGYGGAQPTPPMPTRPVSFHERGGVGSRADYDTLSLRSLRLGPGGLDDRYSLVSEQLEPAATSTYRAFAYERQASSSSSRAGGLDWPEATEVSPSRTIRAPAVRTLQRFQSSHRSRGVGGAVPGAVLEPVARAPSVRSLSLSLADSGHLPDVHGFNSYGSHRTLQRLSSGFDDIDLPSAVKYLMASDPNLQVLGAAYIQHKCYSDAAAKKQARSLQAVPRLVKLFNHANQEVQRHATGAMRNLIYDNADNKLALVEENGIFELLRTLREQDDELRKNVTGILWNLSSSDHLKDRLARDTLEQLTDLVLSPLSGAGGPPLIQQNASEAEIFYNATGFLRNLSSASQATRQKMRECHGLVDALVTSINHALDAGKCEDKSVENAVCVLRNLSYRLYDEMPPSALQRLEGRGRRDLAGAPPGEVVGCFTPQSRRLRELPLAADALTFAEVSKDPKGLEWLWSPQIVGLYNRLLQRCELNRHTTEAAAGALQNITAGDRRWAGVLSRLALEQERILNPLLDRVRTADHHQLRSLTGLIRNLSRNARNKDEMSTKVVSHLIEKLPGSVGEKSPPAEVLVNIIAVLNNLVVASPIAARDLLYFDGLRKLIFIKKKRDSPDSEKSSRAASSLLANLWQYNKLHRDFRAKGYRKEDFLGP [PKP3] | -0.223 | 50.1 °C | 48.3 °C | 0.099 | -0.69 | -0.255
MQWNVPRTVSRLARRTCLEPHNAGLFGHCQNVKGPLLLYNAESKVVLVQGPQKQWLHLSAAQCVAKERRPLDAHPPQPGVLRHKQGKQHVSFRRVFSSSATAQGTPEKKEEPDPLQDKSISLYQRFKKTFRQYGKVLIPVHLITSGVWFGTFYYAALKGVNVVPFLELIGLPDSVVSILKNSQSGNALTAYALFKIATPARYTVTLGGTSVTVKYLRSHGYMSTPPPVKEYLQDRMEETKELITEKMEETKDRLTEKLQETKEKVSFKKKVE [FAM210A] | 0.234 | 55.7 °C | 54.9 °C | -0.102 | -3.65 | -2.22
FRG1 | -0.326 | 51.2 °C | 51.3 °C | 0.0777 | 0.899 | 0.827
MACAAVMIPGLLRCSVGAIRIEAASLRLTLSTLRHLTLTSIMKSKRKTDHMERTASVLRREIVSAAKVCGAASESPSVKSLRLLVADQDFSFKAGQWVDFFIPGVSVVGGFSICSSPRLLEQERVIELAVKYTNHPPALWVHNTCTLDCEVAVRVGGEFFFDPQPADASRNLVLIAGGVGINPLLSILRHAADLLREQANKRNGYEIGTIKLFYSAKNTSELLFKKNILDLVNEFPEKIACSLHVTKQTTQINAELKPYITEGRITEKEIRDHISKETLFYICGPPPMTDFFSKQLENNHVPKEHICFEKWW [OXNAD1] | -0.0285 | 53.9 °C | 54.7 °C | -0.0113 | -0.605 | -0.938
MDSAGQDINLNSPNKGLLSDSMTDVPVDTGVAARTPAVEGLTEAEEEELRAELTKVEEEIVTLRQVLAAKERHCGELKRRLGLSTLGELKQNLSRSWHDVQVSSAYVKTSEKLGEWNEKVTQSDLYKKTQETLSQAGQKTSAALSTVGSAISRKLGDMRNSATFKSFEDRVGTIKSKVVGDRENGSDNLPSSAGSGDKPLSDPAPF [TPD52L2] | 0.127 | 53 °C | 52.7 °C | 0.6 | -4.67 | -5.07
MDPARKAGAQAMIWTAGWLLLLLLRGGAQALECYSCVQKADDGCSPNKMKTVKCAPGVDVCTEAVGAVETIHGQFSLAVRGCGSGLPGKNDRGLDLHGLLAFIQLQQCAQDRCNAKLNLTSRALDPAGNESAYPPNGVECYSCVGLSREACQGTSPPVVSCYNASDHVYKGCFDGNVTLTAANVTVSLPVRGCVQDEFCTRDGVTGPGFTLSGSCCQGSRCNSDLRNKTYFSPRIPPLVRLPPPEPTTVASTTSVTTSTSAPVRPTSTTKPMPAPTSQTPRQGVEHEASRDEEPRLTGGAAGHQDRSNSGQYPAKGGPQQPHNKGCVAPTAGLAALLLAVAAGVLL [LYPD3] | -0.405 | 56.9 °C | – | -0.185 | -2.56 | 3.5
ZNF638 | -0.709 | 48.1 °C | 50.2 °C | 0.363 | 1.39 | 4.74
MGTRLPLVLRQLRRPPQPPGPPRRLRVPCRASSGGGGGGGGGREGLLGQRRPQDGQARSSCSPGGRTPAARDSIVREVIQNSKEVLSLLQEKNPAFKPVLAIIQAGDDNLMQEINQNLAEEAGLNITHICLPPDSSEAEIIDEILKINEDTRVHGLALQISENLFSNKVLNALKPEKDVDGVTDINLGKLVRGDAHECFVSPVAKAVIELLEKSGVNLDGKKILVVGAHGSLEAALQCLFQRKGSMTMSIQWKTRQLQSKLHEADIVVLGSPKPEEIPLTWIQPGTTVLNCSHDFLSGKVGCGSPRIHFGGLIEEDDVILLAAALRIQNMVSSGRRWLREQQHRRWRLHCLKLQPLSPVPSDIEISRGQTPKAVDVLAKEIGLLADEIEIYGKSKAKVRLSVLERLKDQADGKYVLVAGITPTPLGEGKSTVTIGLVQALTAHLNVNSFACLRQPSQGPTFGVKGGAAGGGYAQVIPMEEFNLHLTGDIHAITAANNLLAAAIDTRILHENTQTDKALYNRLVPLVNGVREFSEIQLARLKKLGINKTDPSTLTEEEVSKFARLDIDPSTITWQRVLDTNDRFLRKITIGQGNTEKGHYRQAQFDIAVASEIMAVLALTDSLADMKARLGRMVVASDKSGQPVTADDLGVTGALTVLMKDAIKPNLMQTLEGTPVFVHAGPFANIAHGNSSVLADKIALKLVGEEGFVVTEAGFGADIGMEKFFNIKCRASGLVPNVVVLVATVRALKMHGGGPSVTAGVPLKKEYTEENIQLVADGCCNLQKQIQITQLFGVPVVVALNVFKTDTRAEIDLVCELAKRAGAFDAVPCYHWSVGGKGSVDLARAVREAASKRSRFQFLYDVQVPIVDKIRTIAQAVYGAKDIELSPEAQAKIDRYTQQGFGNLPICMAKTHLSLSHQPDKKGVPRDFILPISDVRASIGAGFIYPLVGTMSTMPGLPTRPCFYDIDLDTETEQVKGLF [MTHFD1L] | 0.247 | 51.7 °C | 51.5 °C | -0.101 | -0.3 | 0.0484
MGPLSARLLMQRGRPKSDRLGKIRSLDLSGLELLSEHLDPKLLCRLTQLQELDLSNNHLETLPDNLGLSHLRVLRCANNQLGDVTALCQFPKLEELSLEGNPFLTVNDNLKVSFLLPTLRKVNGKDASSTYSQVENLNRELTSRVTAHWEKFMATLGPEEEAEKAQADFVKSAVRDVRYGPESLSEFTQWRVRMISEELVAASRTQVQKANSPEKPPEAGAAHKPRARLAALKRPDDVPLSLSPSKRACASPSAQVEGSPVAGSDGSQPAVKLEPLHFLQCHSKNNSPQDLETQLWACAFEPAWEEGATSQTVATCGGEAVCVIDCQTGIVLHKYKAPGEEFFSVAWTALMVVTQAGHKKRWSVLAAAGLRGLVRLLHVRAGFCCGVIRAHKKAIATLCFSPAHETHLFTASYDKRIILWDIGVPNQDYEFQASQLLTLDTTSIPLRLCPVASCPDARLLAGCEGGCCCWDVRLDQPQKRRVCEVEFVFSEGSEASGRRVDGLAFVNEDIVASKGSGLGTICLWSWRQTWGGRGSQSTVAVVVLARLQWSSTELAYFSLSACPDKGIVLCGDEEGNVWLYDVSNILKQPPLLPAALQAPTQILKWPQPWALGQVVTKTMVNTVVANASFTYLTALTDSNIVAIWGRM [LRWD1] | -0.185 | 48 °C | 49.1 °C | -0.0674 | 1.14 | 1.7
MAGPAWISKVSRLLGAFHNPKQVTRGFTGGVQTVTLIPGDGIGPEISAAVMKIFDAAKAPIQWEERNVTAIQGPGGKWMIPSEAKESMDKNKMGLKGPLKTPIAAGHPSMNLLLRKTFDLYANVRPCVSIEGYKTPYTDVNIVTIRENTEGEYSGIEHVIVDGVVQSIKLITEGASKRIAEFAFEYARNNHRSNVTAVHKANIMRMSDGLFLQKCREVAESCKDIKFNEMYLDTVCLNMVQDPSQFDVLVMPNLYGDILSDLCAGLIGGLGVTPSGNIGANGVAIFESVHGTAPDIAGKDMANPTALLLSAVMMLRHMGLFDHAARIEAACFATIKDGKSLTKDLGGNAKCSDFTEEICRRVKDLD [IDH3A] | 0.45 | 54.5 °C | 54.6 °C | -0.00106 | -0.172 | -1.18

Source: the supplement of paper PMC5998384
